Laboratory results from paper PMC5642108.

How the values were obtained:
[1] = molecular target: T1, AB (HMGB1 without C-terminal tail) (human, UniProt P09429 1-166, C23S;C45S;C106S;S35C); experiment: EMSA
FL HMGB1 [2] = molecular target: T2, FL HMGB1 (human, UniProt P09429 1-215, C23S;C45S;C106S;E204C); experiment: EMSA
Target sequence in this assay (P09429 whole entry C23S/C45S/C106S/E204C): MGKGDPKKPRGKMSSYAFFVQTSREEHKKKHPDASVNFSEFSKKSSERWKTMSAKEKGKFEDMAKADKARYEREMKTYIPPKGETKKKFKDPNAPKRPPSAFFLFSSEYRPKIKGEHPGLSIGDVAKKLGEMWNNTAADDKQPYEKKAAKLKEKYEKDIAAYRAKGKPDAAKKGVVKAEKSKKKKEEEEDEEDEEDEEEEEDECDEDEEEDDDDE

[3] = molecular target: T1, AB (HMGB1 without C-terminal tail); experiment: smFRET
FL HMGB1 [4] = molecular target: T2, FL HMGB1; experiment: smFRET
A box = molecular target: T3, A box (human, UniProt P09429 1-85, C23S;C45S;S35C); experiment: smFRET
T3 sequence: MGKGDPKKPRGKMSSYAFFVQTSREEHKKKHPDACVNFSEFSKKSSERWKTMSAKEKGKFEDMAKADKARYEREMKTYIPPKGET

B box = B box (human, UniProt P09429 83-166, C106S;A137C); experiment: smFRET
AB-F38A = AB-F38A (human, UniProt P09429 1-166, C23S;F38A;C45S;C106S;S35C); experiment: smFRET

Sequence of B box (P09429 83-166 C106S/A137C): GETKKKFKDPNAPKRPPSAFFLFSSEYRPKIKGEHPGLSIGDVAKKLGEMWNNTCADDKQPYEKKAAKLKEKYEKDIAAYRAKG

B1: 18 bp dsDNA (EMSA) (dsDNA)
DNA 1: CAGGCTATAAAAGGGACG
DNA 2: CGTCCCTTTTATAGCCTG
[1]
  Kd: 5 nM
FL HMGB1 [2]
  Kd: 10 nM

B2: smFRET DNA (18 bp with 19 nt 3' overhang) (dsDNA)
DNA 1: CAGGCTATAAAAGGGACG
DNA 2: CGTCCCTTTTATAGCCTGATACAAGCAGCAGTCACCA
[3]
  binding result: binds
FL HMGB1 [4]
  binding result: binds
A box
  binding result: binds
B box
  binding result: binds
AB-F38A
  binding result: binds
